Measured values from article PMC10716051, “Cryo-EM reveals how Hsp90 and FKBP immunophilins co-regulate the glucocorticoid receptor” (Nature Structural & Molecular Biology, 2023).

T1: human FKBP51 (human, UniProt Q13451 1-457)
T1 construct: FKBP51, human; The His6 tag is cleavable; source: bacterial expression plasmid pET151, purified
T1 sequence: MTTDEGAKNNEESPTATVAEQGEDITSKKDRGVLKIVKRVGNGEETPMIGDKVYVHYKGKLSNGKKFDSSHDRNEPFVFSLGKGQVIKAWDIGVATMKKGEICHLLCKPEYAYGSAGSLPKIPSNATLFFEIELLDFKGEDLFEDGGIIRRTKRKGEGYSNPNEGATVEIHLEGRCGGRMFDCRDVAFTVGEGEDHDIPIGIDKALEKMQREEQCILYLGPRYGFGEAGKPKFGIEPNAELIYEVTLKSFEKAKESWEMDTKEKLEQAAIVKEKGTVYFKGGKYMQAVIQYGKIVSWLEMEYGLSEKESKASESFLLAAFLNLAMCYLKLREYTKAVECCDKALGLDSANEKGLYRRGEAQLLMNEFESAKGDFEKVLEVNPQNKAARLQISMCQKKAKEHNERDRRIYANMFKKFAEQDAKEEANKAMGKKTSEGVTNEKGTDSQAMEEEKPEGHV

B1: human GR DBD-LBD (residues 418-777, F602S) (domain or fragment, UniProt P04150 418-777, looked up)
chain: PKLCLVCSDEASGCHYGVLTCGSCKVFFKRAVEGQHNYLCAGRNDCIIDKIRRKNCPACRYRKCLQAGMNLEARKTKKKIKGIQQATTGVSQETSENPGNKTIVPATLPQLTPTLVSLLEVIEPEVLYAGYDSSVPDSTWRIMTTLNMLGGRQVIAAVKWAKAIPGFRNLHLDDQMTLLQYSWMSLMAFALGWRSYRQSSANLLCFAPDLIINEQRMTLPCMYDQCKHMLYVSSELHRLQVSYEEYLCMKTLLLLSSVPKDGLKSQELFDEIRMTYIKELGKAIVKREGNSSQNWQRFYQLTKLLDSMHEVVENLLNYCFQTFLDKTMSIEFPEMLAEIITNQIPKYSNGNIKKLLFHQK
notes: glucocorticoid receptor, human; codon optimized; The His6-MBP tag is cleavable; the complex was pulled down on MBP-GR DBD-LBD; Only the LBD was visible in the maps; also called glucocorticoid receptor; MBP-GR DBD-LBD; source: E. coli BL21 star (DE3), purified (Ni-NTA, size exclusion); not shown: MBP, N-terminal, kept
B2: human FKBP52 (natural protein)
chain: MTAEEMKATESGAQSAPLPMEGVDISPKQDEGVLKVIKREGTGTEMPMIGDRVFVHYTGWLLDGTKFDSSLDRKDKFSFDLGKGEVIKAWDIAIATMKVGEVCHITCKPEYAYGSAGSPPKIPPNATLVFEVELFEFKGEDLTEEEDGGIIRRIQTRGEGYAKPNEGAIVEVALEGYYKDKLFDQRELRFEIGEGENLDLPYGLERAIQRMEKGEHSIVYLKPSYAFGSVGKEKFQIPPNAELKYELHLKSFEKAKESWEMNSEEKLEQSTIVKERGTVYFKEGKYKQALLQYKKIVSWLEYESSFSNEEAQKAQALRLASHLNLAMCHLKLQAFSAAIESCNKALELDSNNEKGLFRRGEAHLAVNDFELARADFQKVLQLYPNNKAAKTQLAVCQQRIRRQLAREKKLYANMFERLAEEENKAKAEASSGDHPTDTEMKEEQKSNTAGSQSQVETEA
notes: FKBP52 (gene FKBP4), human; The His6 tag is cleavable; source: bacterial expression plasmid pET151, purified

Assays:
Settings in all cases: both partners purified
human FKBP52 = target: B2; experiment: cryo-EM structure; GR chaperone cycle reconstituted in vitro from purified components (GR DBD-LBD, Hsp70, Hsp40, Hop, Hsp90, p23, Bag-1) with FKBP52; 20 mM sodium molybdate; pulldown on MBP-GR DBD-LBD, size exclusion, 0.02% glutaraldehyde crosslinking; datasets I and II
human Hsp90α = target: T2, human Hsp90α (human, UniProt P07900 1-732); experiment: as above
T2 construct: Hsp90α, human; also called Hsp90A; Hsp90B (the two protomers of the dimer)

human FKBP51 = target: T1, human FKBP51; experiment: cryo-EM structure; GR chaperone cycle reconstituted in vitro from purified components (GR DBD-LBD, Hsp70, Hsp40, Hop, Hsp90, p23, Bag-1) with FKBP51; 20 mM sodium molybdate; pulldown on MBP-GR DBD-LBD, size exclusion, 0.02% glutaraldehyde crosslinking; datasets III and IV

Binder	binding result (human FKBP52)	binding result (human Hsp90α)	binding result (human FKBP51)
B1	binds	binds	binds
B2	–	binds	–
